Data from PMC5034309, “Real-time visualization of conformational changes within single MloK1 cyclic nucleotide-modulated channels” (Nature Communications, 2016).

Target: the molecule itself
Assay: high-speed atomic force microscopy (HS-AFM); MloK1 2D crystals in lipid membrane adsorbed on mica; imaging buffer 10 mM Tris pH 7.4, 150 mM KCl, 100 uM cAMP; oscillating mode

B1: MloK1 cyclic nucleotide-modulated channel from Mesorhizobium loti (natural protein, UniProt Q98GN8 1-355, looked up)
chain: MSVLPFLRIYAPLNAVLAAPGLLAVAALTIPDMSGRSRLALAALLAVIWGAYLLQLAATLLKRRAGVVRDRTPKIAIDVLAVLVPLAAFLLDGSPDWSLYCAVWLLKPLRDSTFFPVLGRVLANEARNLIGVTTLFGVVLFAVALAAYVIERDIQPEKFGSIPQAMWWAVVTLSTTGYGDTIPQSFAGRVLAGAVMMSGIGIFGLWAGILATGFYQEVRRGDFVRNWQLVAAVPLFQKLGPAVLVEIVRALRARTVPAGAVICRIGEPGDRMFFVVEGSVSVATPNPVELGPGAFFGEMALISGEPRSATVSAATTVSLLSLHSADFQMLCSSSPEIAEIFRKTALERRGAAASA
notes: MloK1, cyclic nucleotide-modulated potassium channel of Mesorhizobium loti, full-length, wild type; The C-terminal hexahistidine tag was cleaved with thrombin after 2D crystallisation and before HS-AFM; Residues of the thrombin site may remain; also called wild-type MloK1; not shown: His6, C-terminal, cleaved
In the case of B1, the “stoichiometry N” value is reported as 4.
